Experimental data published in PMC7226950.

Tests used:
[1] = target: NY-ESO peptide on HLA-A*02:01 (human); assay: data from [41,42]; reprinted in Table 1
[2] = target: NY-ESO, mutated peptide ESO4D (4D, 9V) peptide on HLA-A*02:01 (human); assay: data from [41,42]; reprinted in Table 1
[3] = target: NY-ESO peptide on HLA-A*02:01 (human); assay: data from [41,42]; experimental binding affinity data reprinted in Table 1

Substance: 1G4
- koff [1]: 0.82 s⁻¹
- kon [1]: 57000 M⁻¹ s⁻¹
- t1/2 [1]: 0.84 s
- Kd [2]: 252 µM
- koff [2]: 2.59 s⁻¹
- kon [2]: 10000 M⁻¹ s⁻¹
- t1/2 [2]: 0.27 s
- Kd [3]: 14 µM
